From publication PMC9162472, “Improved furfural tolerance in Escherichia coli mediated by heterologous NADH-dependent benzyl alcohol dehydrogenases” (Biochemical Journal, 2022)

Key:
Experiment in all cases: purified protein
Details in all cases: 0.2 mM NADH, 50 mM potassium phosphate pH 7.2, 200 mM NaCl, 37 °C, error is 95% CI, kcat m^-1 [sic]
purified protein [1] = substrate: CCCCCC=O; type: biochemical, Burkholderia ambifaria
purified protein [2] = substrate: O=Cc1ccc(CO)o1; type: biochemical, Burkholderia ambifaria
purified protein [3] = substrate: O=Cc1ccccc1; type: biochemical, Burkholderia ambifaria
purified protein [4] = substrate: O=Cc1ccco1; type: biochemical, Burkholderia ambifaria
purified protein [5] = substrate: O=Cc1ccc(CO)o1; type: biochemical, Pseudomonas putida
purified protein [6] = substrate: O=Cc1ccccc1; type: biochemical, Pseudomonas putida
purified protein [7] = substrate: O=Cc1ccco1; type: biochemical, Pseudomonas putida
purified protein [8] = substrate: O=Cc1ccc(CO)o1; type: biochemical, Acinetobacter calcoaceticus
purified protein [9] = substrate: O=Cc1ccccc1; type: biochemical, Acinetobacter calcoaceticus
purified protein [10] = substrate: O=Cc1ccco1; type: biochemical, Acinetobacter calcoaceticus

B1: BaBAD (Burkholderia ambifaria MC40-6) (protein)
chain: MYTENDTRAVTAAVARAAGAPFSIEPARIRAPRGDEVLVRVVATGLCHTDLIVRDQYYPVPLPAVLGHEGAGVVEAVGPNVKTLAAGDHVVLTYGACGHCASCAGGHGAYCRQFFALNFGGADADGQTALRDAAGEPLHDHFFAQSSFASYALARENNAIKVPKEAPLELLGPLGCGIQTGAGAVINSLAVRTGSSFASFGAGAVGMSAVMAARIAGATTIIAVDIVPSRLALALELGATHAINSKEVDVVDAIREITGGGVDYALESTGLPAVLSQGIDALGSRGTMGVVGAPKLGTKAEFDVNSLLLGGHTIRGIVEGDSVPQTFIPQLVQLHLQGRFPFDRLVKFYPLEQINQAAADSSSGITLKPILRLPH
Protein B1 has a Km (purified protein [1]) of 672 ± 374 µM, a kcat (purified protein [1]) of 0.758 ± 0.163 s⁻¹ and a kcat/Km (purified protein [1]) of 1170 ± 667 M⁻¹ s⁻¹. For the same protein, the Km (purified protein [2]) was 377 ± 242 µM, the kcat (purified protein [2]) was 1.09 ± 0.192 s⁻¹ and the kcat/Km (purified protein [2]) was 3330 ± 1670 M⁻¹ s⁻¹. For the same protein, the Km (purified protein [3]) was 78.3 ± 30 µM, the kcat (purified protein [3]) was 0.865 ± 0.0785 s⁻¹ and the kcat/Km (purified protein [3]) was 11700 ± 5000 M⁻¹ s⁻¹. It also gave a Km (purified protein [4]) of 75.2 ± 62.2 µM, a kcat (purified protein [4]) of 0.575 ± 0.112 s⁻¹ and a kcat/Km (purified protein [4]) of 8330 ± 6670 M⁻¹ s⁻¹.

B2: XylB (Pseudomonas putida) (protein)
chain: EIKAAIVRQKNGPFLLEHVALNEPAEDQVLVRLVATGLCHTDLVCRDQHYPVPLPMVFGHEGAGVVERVGSAVKKVQPGDHVVLTFYTCGSCDACLSGDPTSCANSFGPNFMGRSVTGECTIHDHQGAEVGASFFGQSSFATYALSYERNTVKVTKDVPLELLGPLGCGIQTGAGSVLNALNPPAGSSIAIFGAGAVGLSAVMAAVVAGCTKIIVVDVKENRLKLADELGATHVINAASSDPVEKIKEICAGGVPYVLETSGLPSVLQQAILSSAIGGEIGIVGAPPMGATIPVDINFLLFNRKLRGIVEGQSISDIFIPRLVELYRQGKFPFDKLLKFYSFDEINQAAEDSENGITLKPVLRIS
For B2, the Km (purified protein [5]) was 461 ± 52.1 µM, the kcat (purified protein [5]) was 1.16 ± 0.0453 s⁻¹ and the kcat/Km (purified protein [5]) was 3330 ± 333 M⁻¹ s⁻¹. It also gave a Km (purified protein [6]) of 21.2 ± 16.2 µM, a kcat (purified protein [6]) of 0.192 ± 0.0343 s⁻¹ and a kcat/Km (purified protein [6]) of 8330 ± 6670 M⁻¹ s⁻¹. It also gave a Km (purified protein [7]) of 234 ± 153 µM, a kcat (purified protein [7]) of 2.45 ± 0.467 s⁻¹ and a kcat/Km (purified protein [7]) of 10000 ± 6670 M⁻¹ s⁻¹.

B3: AcBAD (Acinetobacter calcoaceticus) (protein)
chain: MSELKDIIAAVTPCKGADFELQALKIRQPQGDEVLVKVVATGMCHTDLIVRDQYYPVPLPAVLGHEGSGIIEAIGPNVTELQVGDHVVLSYGYCGKCTQCNTGNPAYCSEFFGRNFSGADSEGNHALCTHDQGVVNDHFFAQSSFATYALSRENNTVKVTKDVPIELLGPLGCGIQTGAGACINALKVTPASSLVTWGAGAVGLSALLAAKVCGASIIIAVDIVESRLELAKQLGATHVINSKTQDPVAAIKEITDGGVNFALESTGRPEILKQGVDALGILGKIAVVGAPQLGTTAQFDVNDLLLGGKTILGVVEGSGSPKKFIPELVRLYQQGKFPFDQLVKFYAFDEINQAAIDSHKGITLKPIIKIA
In the case of B3, the Km (purified protein [8]) is reported as 294 ± 277 µM, the kcat (purified protein [8]) is reported as 0.565 ± 0.146 s⁻¹ and the kcat/Km (purified protein [8]) is reported as 1670 ± 1670 M⁻¹ s⁻¹. It also gave a Km (purified protein [9]) of 412 ± 251 µM, a kcat (purified protein [9]) of 6.57 ± 1.34 s⁻¹ and a kcat/Km (purified protein [9]) of 16700 ± 10000 M⁻¹ s⁻¹. It also gave a Km (purified protein [10]) of 359 ± 224 µM, a kcat (purified protein [10]) of 2.73 ± 0.467 s⁻¹ and a kcat/Km (purified protein [10]) of 8330 ± 3330 M⁻¹ s⁻¹.
